From the supplement of paper PMC5998384 come the findings set out here.

Series [1] concerns HeLa Kyoto. Kind of series: solubility in G1/S (NP-40 vs SDS abundance) (log2 ratio); higher = more soluble. The note with it: cell cycle stage: G1/S.
Series [2] has as its system HeLa Kyoto. The series is described as follows: melting temperature (median over replicates), in situ; higher = more thermally stable.
Series [3] concerns HeLa Kyoto. Kind of series: solubility change mitosis vs G1/S (difference of NP-40 vs SDS log2 ratios) (log2 ratio difference); higher = more soluble in mitosis.
In series [4] the test system is HeLa Kyoto. The series is described as follows: thermal stability score vs G1/S (z-score of summed log2 fold changes over temperatures); higher = more thermally stable than in G1/S.
The mark [5] stands for this setting: cell cycle stage: early G1 (4.5 h after nocodazole release).
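Wherever melting temperature (median over replicates), in situ is given: HeLa Kyoto cells synchronized by double thymidine or nocodazole block, proteins quantified by TMT10plex mass spectrometry, three independent biological replicates.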
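Wherever solubility change mitosis vs G1/S (difference of NP-40 vs SDS log2 ratios) is given: synchronized HeLa Kyoto cells (double thymidine block for G1/S, nocodazole release for mitosis), protein amounts in NP-40 versus SDS lysates quantified by mass spectrometry, three biological replicates.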
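Wherever solubility in G1/S (NP-40 vs SDS abundance) is given: HeLa Kyoto cells arrested at G1/S by double thymidine block, proteins quantified by TMT10plex mass spectrometry in mild NP-40 versus SDS extracts, three biological replicates.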
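Wherever thermal stability score vs G1/S (z-score of summed log2 fold changes over temperatures) is given: synchronized HeLa Kyoto cells, proteins quantified by TMT10plex mass spectrometry, three biological replicates, mitosis taken 0.5 h after nocodazole release, G1/S directly after double thymidine block.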

As to “MDTEGFGELLQQAEQLAAETEGISELPHVERNLQEIQQAGERLRSRTLTRTSQETADVKASVLLGSRGLDISHISQRLESLSAATTFEPLEPVKDTDIQGFLKNEKDNALLSAIEESRKRTFGMAEEYHRESMLVEWEQVKQRILHTLLASGEDALDFTQESEPSYISDVGPPGRSSLDNIEMAYARQIYIYNEKIVNGHLQPNLVDLCASVAELDDKSISDMWTMVKQMTDVLLTPATDALKNRSSVEVRMEFVRQALAYLEQSYKNYTLVTVFGNLHQAQLGGVPGTYQLVRSFLNIKLPAPLPGLQDGEVEGHPVWALIYYCMRCGDLLAASQVVNRAQHQLGEFKTWFQEYMNSKDRRLSPATENKLRLHYRRALRNNTDPYKRAVYCIIGRCDVTDNQSEVADKTEDYLWLKLNQVCFDDDGTSSPQDRLTLSQFQKQLLEDYGESHFTVNQQPFLYFQVLFLTAQFEAAVAFLFRMERLRCHAVHVALVLFELKLLLKSSGQSAQLLSHEPGDPPCLRRLNFVRLLMLYTRKFESTDPREALQYFYFLRDEKDSQGENMFLRCVSELVIESREFDMILGKLENDGSRKPGVIDKFTSDTKPIINKVASVAENKGLFEEAAKLYDLAKNADKVLELMNKLLSPVVPQISAPQSNKERLKNMALSIAERYRAQGISANKFVDSTFYLLLDLITFFDEYHSGHIDRAFDIIERLKLVPLNQESVEERVAAFRNFSDEIRHNLSEVLLATMNILFTQFKRLKGTSPSSSSRPQRVIEDRDSQLRSQARTLITFAGMIPYRTSGDTNARLVQMEVLMN [NUP93]”, the “solubility in G1/S (log2)” value with HeLa Kyoto [1] is -0.149. For the same sequence, the results for the melting temperature with HeLa Kyoto [2] (cell cycle stage: G1/S) and in the series with HeLa Kyoto [2] (cell cycle stage: mitosis) were 51.9 °C and 48.3 °C, respectively. Besides, in the series with HeLa Kyoto [3], the “solubility change mitosis (log2)” value is 0.117. In addition, the thermal stability score in the series on HeLa Kyoto [4] (setting [5]) was -3.26; in the series on HeLa Kyoto [4] (cell cycle stage: mitosis), -4.55.
Take “MDTPPLSDSESESDESLVTDRELQDAFSRGLLKPGLNVVLEGPKKAVNDVNGLKQCLAEFKRDLEWVERLDVTLGPVPEIGGSEAPAPQNKDQKAVDPEDDFQREMSFYRQAQAAVLAVLPRLHQLKVPTKRPTDYFAEMAKSDLQMQKIRQKLQTKQAAMERSEKAKQLRALRKYGKKVQTEVLQKRQQEKAHMMNAIKKYQKGFSDKLDFLEGDQKPLAQRKKAGAKGQQMRKGPSAKRRYKNQKFGFGGKKKGSKWNTRESYDDVSSFRAKTAHGRGLKRPGKKGSNKRPGKRTREKMKNRTH [EBNA1BP2]”: the “solubility in G1/S (log2)” value with HeLa Kyoto [1] is -1.71. The figures for the melting temperature with HeLa Kyoto [2] (cell cycle stage: G1/S) and with HeLa Kyoto [2] (cell cycle stage: mitosis) were 54 °C and 53.4 °C, respectively. Besides, in the series with HeLa Kyoto [3], the “solubility change mitosis (log2)” value came out at 1.38. The thermal stability score was determined as 0.765 in the series on HeLa Kyoto [4] (setting [5]) and 0.121 in the series on HeLa Kyoto [4] (cell cycle stage: mitosis).
As for “MDVRRLKVNELREELQRRGLDTRGLKAELAERLQAALEAEEPDDERELDADDEPGRPGHINEEVETEGGSELEGTAQPPPPGLQPHAEPGGYSGPDGHYAMDNITRQNQFYDTQVIKQENESGYERRPLEMEQQQAYRPEMKTEMKQGAPTSFLPPEASQLKPDRQQFQSRKRPYEENRGRGYFEHREDRRGRSPQPPAEEDEDDFDDTLVAIDTYNCDLHFKVARDRSSGYPLTIEGFAYLWSGARASYGVRRGRVCFEMKINEEISVKHLPSTEPDPHVVRIGWSLDSCSTQLGEEPFSYGYGGTGKKSTNSRFENYGDKFAENDVIGCFADFECGNDVELSFTKNGKWMGIAFRIQKEALGGQALYPHVLVKNCAVEFNFGQRAEPYCSVLPGFTFIQHLPLSERIRGTVGPKSKAECEILMMVGLPAAGKTTWAIKHAASNPSKKYNILGTNAIMDKMRVMGLRRQRNYAGRWDVLIQQATQCLNRLIQIAARKKRNYILDQTNVYGSAQRRKMRPFEGFQRKAIVICPTDEDLKDRTIKRTDEEGKDVPDHAVLEMKANFTLPDVGDFLDEVLFIELQREEADKLVRQYNEEGRKAGPPPEKRFDNRGGGGFRGRGGGGGFQRYENRGPPGGNRGGFQNRGGGSGGGGNYRGGFNRSGGGGYSQNRWGNNNRDNNNSNNRGSYNRAPQQQPPPQQPPPPQPPPQQPPPPPSYSPARNPPGASTYNKNSNIPGSSANTSTPTVSSYSPPQPSYSQPPYNQGGYSQGYTAPPPPPPPPPAYNYGSYGGYNPAPYTPPPPPTAQTYPQPSYNQYQQYAQQWNQYYQNQGQWPPYYGNYDYGSYSGNTQGGTSTQ [HNRNPUL1]”, in the series on HeLa Kyoto [1], the “solubility in G1/S (log2)” value was -0.152. Also, the melting temperature in the series on HeLa Kyoto [2] (cell cycle stage: G1/S) was found to be 46.9 °C; in the series with HeLa Kyoto [2] (cell cycle stage: mitosis) it was 49.2 °C. The “solubility change mitosis (log2)” value with HeLa Kyoto [3] was -0.0379. Moreover, the values for the thermal stability score with HeLa Kyoto [4] (setting [5]) and with HeLa Kyoto [4] (cell cycle stage: mitosis) were 3.72 and 6.44, respectively.
Regarding “MDWGTELWDQFEVLERHTQWGLDLLDRYVKFVKERTEVEQAYAKQLRSLVKKYLPKRPAKDDPESKFSQQQSFVQILQEVNDFAGQRELVAENLSVRVCLELTKYSQEMKQERKMHFQEGRRAQQQLENGFKQLENSKRKFERDCREAEKAAQTAERLDQDINATKADVEKAKQQAHLRSHMAEESKNEYAAQLQRFNRDQAHFYFSQMPQIFDKLQDMDERRATRLGAGYGLLSEAELEVVPIIAKCLEGMKVAANAVDPKNDSHVLIELHKSGFARPGDVEFEDFSQPMNRAPSDSSLGTPSDGRPELRGPGRSRTKRWPFGKKNKPRPPPLSPLGGPVPSALPNGPPSPRSGRDPLAILSEISKSVKPRLASFRSLRGSRGTVVTEDFSHLPPEQQRKRLQQQLEERSRELQKEVDQREALKKMKDVYEKTPQMGDPASLEPQIAETLSNIERLKLEVQKYEAWLAEAESRVLSNRGDSLSRHARPPDPPASAPPDSSSNSASQDTKESSEEPPSEESQDTPIYTEFDEDFEEEPTSPIGHCVAIYHFEGSSEGTISMAEGEDLSLMEEDKGDGWTRVRRKEGGEGYVPTSYLRVTLN [TRIP10]”, the “solubility in G1/S (log2)” value in the series with HeLa Kyoto [1] stood at 0.397. The values for the melting temperature in the series on HeLa Kyoto [2] (cell cycle stage: G1/S) and in the series on HeLa Kyoto [2] (cell cycle stage: mitosis) were 50.7 °C and 49.9 °C, respectively. The “solubility change mitosis (log2)” value in the series with HeLa Kyoto [3] was -0.00359. Moreover, the thermal stability score with HeLa Kyoto [4] (setting [5]) was -0.196; in the series on HeLa Kyoto [4] (cell cycle stage: mitosis) it was -0.283.
Take “MEAADASRSNGSSPEARDARSPSGPSGSLENGTKADGKDAKTTNGHGGEAAEGKSLGSALKPGEGRSALFAGNEWRRPIIQFVESGDDKNSNYFSMDSMEGKRSPYAGLQLGAAKKPPVTFAEKGELRKSIFSESRKPTVSIMEPGETRRNSYPRADTGLFSRSKSGSEEVLCDSCIGNKQKAVKSCLVCQASFCELHLKPHLEGAAFRDHQLLEPIRDFEARKCPVHGKTMELFCQTDQTCICYLCMFQEHKNHSTVTVEEAKAEKETELSLQKEQLQLKIIEIEDEAEKWQKEKDRIKSFTTNEKAILEQNFRDLVRDLEKQKEEVRAALEQREQDAVDQVKVIMDALDERAKVLHEDKQTREQLHSISDSVLFLQEFGALMSNYSLPPPLPTYHVLLEGEGLGQSLGNFKDDLLNVCMRHVEKMCKADLSRNFIERNHMENGGDHRYVNNYTNSFGGEWSAPDTMKRYSMYLTPKGGVRTSYQPSSPGRFTKETTQKNFNNLYGTKGNYTSRVWEYSSSIQNSDNDLPVVQGSSSFSLKGYPSLMRSQSPKAQPQTWKSGKQTMLSHYRPFYVNKGNGIGSNEAP [TRIM29]”: the “solubility in G1/S (log2)” value in the series on HeLa Kyoto [1] was -0.308. Moreover, the melting temperature in the series with HeLa Kyoto [2] (cell cycle stage: G1/S) was 50.6 °C; in the series on HeLa Kyoto [2] (cell cycle stage: mitosis), 50.9 °C. In addition, the “solubility change mitosis (log2)” value in the series with HeLa Kyoto [3] was found to be 0.303. Moreover, the thermal stability score is -0.827 in the series on HeLa Kyoto [4] (setting [5]) and -1.46 in the series with HeLa Kyoto [4] (cell cycle stage: mitosis).
“MEAARPPPTAGKFVVVGGGIAGVTCAEQLATHFPSEDILLVTASPVIKAVTNFKQISKILEEFDVEEQSSTMLGKRFPNIKVIESGVKQLKSEEHCIVTEDGNQHVYKKLCLCAGAKPKLICEGNPYVLGIRDTDSAQEFQKQLTKAKRIMIIGNGGIALELVYEIEGCEVIWAIKDKAIGNTFFDAGAAEFLTSKLIAEKSEAKIAHKRTRYTTEGRKKEARSKSKADNVGSALGPDWHEGLNLKGTKEFSHKIHLETMCEVKKIYLQDEFRILKKKSFTFPRDHKSVTADTEMWPVYVELTNEKIYGCDFIVSATGVTPNVEPFLHGNSFDLGEDGGLKVDDHMHTSLPDIYAAGDICTTSWQLSPVWQQMRLWTQARQMGWYAAKCMAAASSGDSIDMDFSFELFAHVTKFFNYKVVLLGKYNAQGLGSDHELMLRCTKGREYIKVVMQNGRMMGAVLIGETDLEETFENLILNQMNLSSYGEDLLDPNIDIEDYFD [PYROXD1]”: in the series on HeLa Kyoto [1], the “solubility in G1/S (log2)” value was -0.102. For the same sequence, the melting temperature with HeLa Kyoto [2] (cell cycle stage: G1/S) was found to be 49.6 °C; with HeLa Kyoto [2] (cell cycle stage: mitosis), 49.9 °C. Moreover, the “solubility change mitosis (log2)” value in the series with HeLa Kyoto [3] is -0.158. Also, the thermal stability score in the series on HeLa Kyoto [4] (setting [5]) was -0.128; with HeLa Kyoto [4] (cell cycle stage: mitosis), -0.037.
